Target: the molecule itself
Experiment: SEC; analytical SEC; purified protein about 2 mg/ml in PBS; TSKgel G4000SWxl; mobile phase 90% phosphate buffer (50 mM sodium phosphate, 200 mM NaCl, pH 7.2) and 10% ethanol; BioRad gel filtration standard as markers

B1: HsTP^218 (human thymidine phosphorylase truncated before K34, C-terminal His6-tag) (enzyme)
chain: MGKQLPELIRMKRDGGRLSEADIRGFVAAVVNGSAQGAQIGAMLMAIRLRGMDLEETSVLTQALAQSGQQLEWPEAWRQQLVDKHSTGGVGDKVSLVLAPALAACGCKVPMISGRGLGHTGGTLDKLESIPGFNVIQSPEQMQVLLDQAGCCIVGQSEQLVPADGILYAARDVTATVDSLPLITASILSKKLVEGLSALVVDVKFGGAAVFPNQEQARELAKTLVGVGASLGLRVAAALTAMDKPLGRCVGHALEVEEALLCMDGAGPPDLRDLVTTLGGALLWLSGHAGTQAQGAARVAAALDDGSALGRFERMLAAQGVDPGLARALCSGSPAERRQLLPRAREQEELLAPADGTVELVRALPLALVLHELGAGRSRAGEPLRLGVGAELLVDVGQRLRRGTPWLRVHRDGPALSGPQSRALQEALVLSDRAPFAAPSPFAELVLPPQQ
notes: starting methionine and a glycine scar residue from cloning with the NcoI site; they precede K34 (M1-G2-K3-Q4); human thymidine phosphorylase (HsTP, TYMP), lacking the first thirty-three residues of the full-length protein; starts at K34, full-length numbering of UniProt P19971; Codon-optimized synthetic gene in pET28a; No cleavage of the His6-tag is described; also called expression-optimized …
- stoichiometry N: 2

From paper PMC8718881, “Engineering of the Recombinant Expression and PEGylation Efficiency of the Therapeutic Enzyme Human Thymidine Phosphorylase” (Frontiers in Bioengineering and Biotechnology, 2021)
